Measured values: patent publication US20150265516A1 (Merck KGaA, published 2015)
Blank lines part the entries; values can stand above or below the binder they belong to. Starred links: 1 amine or outer side, 2 acyl side, 3 side chain; linkers in the order of their positions; H or OH if unused. Non-standard residues stand in square brackets, D forms with d. Primed or numbered codes have the meaning given here. No end group written: not given here. Nhdg = N-hexadecylglycine, CCCCCCCCCCCCCCCCN(CC(=O)[*:2])[*:1]; Aib′ = 3-aminoisobutyric acid (as defined by the filing); Ac6c = NC1(C(=O)O)CCCCC1; NMeA = CN[C@@H](C)C(=O)O; Ac5c = NC1(C(=O)O)CCCC1

Columns and labels:
[1] = biological target: T1, purified human integrin αvβ3 from term placenta (human, UniProt P06756 31-1048; P05106 27-788); assay: receptor inhibition assay: coated placental αvβ3, competitor ligand biotinylated vitronectin
T1 construct: mature; also called human placental αvβ3; vitronectin receptor avβ3
Experimental: Method: 1 μg ml⁻¹ biotin-ligand is incubated with 1 μg ml⁻¹ coated receptor in the presence of serially diluted peptides. After 3 h at 30° C. bound ligand was measures by anti-biotin—alkaline phosphatase detection.

[2] = biological target: T1, purified human integrin αvβ3 from term …; assay: solid-phase inhibition assay: immobilized placental αvβ3, competitor ligand vitronectin
[3] = biological target: T2, recombinant human integrin αvβ3 (human, UniProt P06756 31-992; P05106 27-718); assay: isolated integrin binding assay: adsorbed recombinant human αvβ3, competitor ligand biotinylated human plasma vitronectin
T2 construct: also called recombinant human αvβ3 integrin; avβ3
Experimental: After 3 hours at 37° C., bound ligand is detected using alkaline-phosphatase labelled anti-biotin MAbs (Sigma, St. Louis, Mo.).

[4] = biological target: T2, recombinant human integrin αvβ3; assay: ligand inhibition ELISA: immobilized recombinant human αvβ3, competitor ligand biotinylated human serum vitronectin

T2 sequence (P06756 31-992, chain 1 of 2): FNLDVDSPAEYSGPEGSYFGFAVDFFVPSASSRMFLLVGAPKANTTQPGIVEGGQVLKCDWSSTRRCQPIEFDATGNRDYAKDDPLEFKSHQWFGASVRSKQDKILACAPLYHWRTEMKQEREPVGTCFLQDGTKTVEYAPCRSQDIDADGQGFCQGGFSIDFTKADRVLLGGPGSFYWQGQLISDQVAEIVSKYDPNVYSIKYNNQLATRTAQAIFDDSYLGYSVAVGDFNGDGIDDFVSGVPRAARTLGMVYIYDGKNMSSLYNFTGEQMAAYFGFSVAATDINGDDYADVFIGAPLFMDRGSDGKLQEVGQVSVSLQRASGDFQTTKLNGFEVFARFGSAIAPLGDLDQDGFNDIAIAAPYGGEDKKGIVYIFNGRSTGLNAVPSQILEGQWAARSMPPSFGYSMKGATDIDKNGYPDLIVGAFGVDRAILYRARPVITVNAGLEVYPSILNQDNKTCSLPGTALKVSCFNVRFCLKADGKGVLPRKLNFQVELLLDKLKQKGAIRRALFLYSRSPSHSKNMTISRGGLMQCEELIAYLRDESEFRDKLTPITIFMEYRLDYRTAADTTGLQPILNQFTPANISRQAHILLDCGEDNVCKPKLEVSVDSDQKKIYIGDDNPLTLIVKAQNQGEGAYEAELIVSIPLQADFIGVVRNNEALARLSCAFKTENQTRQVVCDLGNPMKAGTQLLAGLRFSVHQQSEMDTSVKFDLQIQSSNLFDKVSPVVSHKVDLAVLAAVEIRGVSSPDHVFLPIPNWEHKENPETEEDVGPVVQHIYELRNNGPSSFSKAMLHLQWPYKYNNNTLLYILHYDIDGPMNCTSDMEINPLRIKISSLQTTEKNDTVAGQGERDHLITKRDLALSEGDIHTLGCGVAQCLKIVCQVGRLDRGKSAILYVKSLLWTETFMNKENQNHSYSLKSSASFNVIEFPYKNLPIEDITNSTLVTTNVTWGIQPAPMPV
T2 sequence (P05106 27-718, chain 2 of 2): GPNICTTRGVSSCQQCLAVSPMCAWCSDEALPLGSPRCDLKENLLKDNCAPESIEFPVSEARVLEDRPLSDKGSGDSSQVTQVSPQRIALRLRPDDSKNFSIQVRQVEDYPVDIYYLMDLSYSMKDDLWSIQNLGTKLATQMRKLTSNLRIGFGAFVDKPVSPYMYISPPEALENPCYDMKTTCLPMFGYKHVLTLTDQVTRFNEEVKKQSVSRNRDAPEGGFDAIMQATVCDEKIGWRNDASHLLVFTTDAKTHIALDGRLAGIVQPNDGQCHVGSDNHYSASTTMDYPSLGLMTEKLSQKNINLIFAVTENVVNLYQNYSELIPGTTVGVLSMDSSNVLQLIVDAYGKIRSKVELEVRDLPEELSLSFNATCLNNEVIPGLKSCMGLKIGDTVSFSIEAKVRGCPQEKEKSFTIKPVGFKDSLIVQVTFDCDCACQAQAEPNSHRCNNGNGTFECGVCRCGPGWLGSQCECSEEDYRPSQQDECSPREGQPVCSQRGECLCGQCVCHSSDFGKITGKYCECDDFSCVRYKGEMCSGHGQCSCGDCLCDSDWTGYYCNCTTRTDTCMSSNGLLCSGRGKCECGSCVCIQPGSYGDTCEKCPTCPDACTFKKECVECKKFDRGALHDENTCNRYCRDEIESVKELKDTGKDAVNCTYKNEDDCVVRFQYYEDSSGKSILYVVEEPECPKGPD
T1 sequence (P06756 31-1048, form in doubt, chain 1 of 2): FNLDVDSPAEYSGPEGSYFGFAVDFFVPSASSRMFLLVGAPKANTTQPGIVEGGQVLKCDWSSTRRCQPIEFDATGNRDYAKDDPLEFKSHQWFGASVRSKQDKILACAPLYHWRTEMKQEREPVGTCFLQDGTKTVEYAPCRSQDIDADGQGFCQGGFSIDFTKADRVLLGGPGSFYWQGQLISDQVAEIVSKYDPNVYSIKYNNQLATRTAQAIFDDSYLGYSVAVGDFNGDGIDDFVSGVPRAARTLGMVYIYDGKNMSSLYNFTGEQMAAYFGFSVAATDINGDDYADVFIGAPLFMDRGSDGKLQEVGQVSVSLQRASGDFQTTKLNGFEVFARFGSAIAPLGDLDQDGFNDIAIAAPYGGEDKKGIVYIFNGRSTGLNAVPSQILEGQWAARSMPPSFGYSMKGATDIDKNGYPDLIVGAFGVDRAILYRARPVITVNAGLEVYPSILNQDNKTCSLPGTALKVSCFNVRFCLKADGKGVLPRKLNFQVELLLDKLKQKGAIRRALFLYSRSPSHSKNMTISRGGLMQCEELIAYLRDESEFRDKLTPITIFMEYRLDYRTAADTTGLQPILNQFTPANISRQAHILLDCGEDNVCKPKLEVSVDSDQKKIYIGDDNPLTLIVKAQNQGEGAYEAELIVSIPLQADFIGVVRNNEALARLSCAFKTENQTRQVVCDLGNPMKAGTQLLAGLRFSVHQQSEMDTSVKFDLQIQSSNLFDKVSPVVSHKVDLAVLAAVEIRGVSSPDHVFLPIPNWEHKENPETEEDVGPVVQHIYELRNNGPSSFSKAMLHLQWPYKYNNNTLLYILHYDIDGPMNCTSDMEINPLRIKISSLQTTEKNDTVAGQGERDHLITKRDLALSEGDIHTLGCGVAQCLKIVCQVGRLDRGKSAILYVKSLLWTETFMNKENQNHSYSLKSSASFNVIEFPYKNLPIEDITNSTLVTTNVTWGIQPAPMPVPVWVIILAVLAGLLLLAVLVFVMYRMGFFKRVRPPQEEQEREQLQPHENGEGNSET
T1 sequence (P05106 27-788, form in doubt, chain 2 of 2): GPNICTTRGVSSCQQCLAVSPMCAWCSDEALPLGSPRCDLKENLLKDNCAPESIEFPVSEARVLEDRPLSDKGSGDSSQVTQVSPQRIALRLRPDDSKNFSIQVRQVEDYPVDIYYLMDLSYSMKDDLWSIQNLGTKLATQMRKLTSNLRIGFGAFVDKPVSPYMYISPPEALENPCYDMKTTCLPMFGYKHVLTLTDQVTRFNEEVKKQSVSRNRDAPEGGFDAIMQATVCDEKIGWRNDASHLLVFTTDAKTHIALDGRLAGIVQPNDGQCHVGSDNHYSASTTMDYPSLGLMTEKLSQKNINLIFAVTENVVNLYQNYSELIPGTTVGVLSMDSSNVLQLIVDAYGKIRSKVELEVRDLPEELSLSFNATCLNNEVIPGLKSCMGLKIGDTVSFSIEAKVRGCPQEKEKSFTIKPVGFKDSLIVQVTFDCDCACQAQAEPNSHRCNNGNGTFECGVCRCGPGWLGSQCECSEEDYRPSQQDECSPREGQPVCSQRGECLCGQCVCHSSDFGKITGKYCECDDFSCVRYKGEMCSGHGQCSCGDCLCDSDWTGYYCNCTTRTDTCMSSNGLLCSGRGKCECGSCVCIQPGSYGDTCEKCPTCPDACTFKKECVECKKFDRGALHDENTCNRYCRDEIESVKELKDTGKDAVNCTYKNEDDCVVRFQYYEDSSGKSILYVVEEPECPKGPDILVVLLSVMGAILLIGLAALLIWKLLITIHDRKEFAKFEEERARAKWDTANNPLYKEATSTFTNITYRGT

Binder: cyclo(RGD[dF][Ac5c]) (X = non-natural residue Acpa) [Cyclo-(Arg-Gly-Asp-DPhe-Acpa)]
IC50 [1]: 9 nM

Binder: RGDFG (head-to-tail cyclic (homodetic)) [Cyclo(Arg-Gly-Asp-Phe-Gly)]
IC50 [1]: 400 nM

B1: Cyclo-(Arg-Ala-Asp-DPhe-Val) (peptide)
peptide: cyclo(RAD[dF]V)
SMILES: CC(C)[C@@H]1NC(=O)[C@@H](Cc2ccccc2)NC(=O)[C@H](CC(=O)O)NC(=O)[C@H](C)NC(=O)[C@H](CCCNC(=N)N)NC1=O
notes: also called cyclo(RADfV)
IC50 [2]: 4000 nM

B4: Cyclo-(Arg-Gly-Asp-DPhe-(NMe)Ala) (peptide)
peptide: cyclo(RGD[dF][NMeA])
SMILES: C[C@H]1C(=O)N[C@@H](CCCNC(=N)N)C(=O)NCC(=O)N[C@@H](CC(=O)O)C(=O)N[C@H](Cc2ccccc2)C(=O)N1C
IC50 [4]: 24 nM

B5: Cyclo-(Arg-Gly-Asp-DPhe-Acha) (peptide)
peptide: cyclo(RGD[dF][Ac6c])
SMILES: N=C(N)NCCC[C@@H]1NC(=O)C2(CCCCC2)NC(=O)[C@@H](Cc2ccccc2)NC(=O)[C@H](CC(=O)O)NC(=O)CNC1=O
notes: X = non-natural residue Acha; also called CPPC 1; Cyclopeptide
IC50 [1]: 2 nM
IC50 [3]: 2.1 nM

Next, values leading:

IC50 [1]: 8 nM
B2: Cyclo-(Arg-Gly-Asp-Phe-Nhdg) (peptide)
peptide: cyclo(RGDF[Nhdg])
SMILES: CCCCCCCCCCCCCCCCN1CC(=O)N[C@@H](CCCNC(=N)N)C(=O)NCC(=O)N[C@@H](CC(=O)O)C(=O)N[C@@H](Cc2ccccc2)C1=O
notes: Phe at 4 is printed without D; residue 5 is glycine carrying an N-hexadecyl group

IC50 [3]: 120 nM
B3: Gly-Arg-Gly-Asp-Ser-Pro-Lys-OH (peptide)
peptide: GRGDSPK-OH
notes: Linear peptide with free C-terminus; also called GRGDSPK peptide

IC50 [1]: 170 nM
Binder: cyclo(RGD[dF]X) (not fully specified (residue 5); printed as Cyclo-(Arg-Gly-Asp-DPhe-hPro), X = non-natural residue hPro) [Cyclo-(Arg-Gly-Asp-DPhe-hPro)]

IC50 [1]: 20 nM
Binder: cyclo(RGD[dF][Aib′]) (X = non-natural residue Aib) [Cyclo-(Arg-Gly-Asp-DPhe-Aib)]
